Assay [1] has as its target T1, t-SNAREs: heterodimeric complex of syntaxin-1 and SNAP-25, membrane-integrated in liposomes (UniProt P32851 1-288; P60881 1-206). The assay can be described thus: co-sedimentation.
For assay [2], the target named is T1, t-SNAREs: heterodimeric complex of …. The assay can be described thus: co-sedimentation. The source holds these as a separate data set.

T1 sequence (P32851 whole entry, chain 1 of 2): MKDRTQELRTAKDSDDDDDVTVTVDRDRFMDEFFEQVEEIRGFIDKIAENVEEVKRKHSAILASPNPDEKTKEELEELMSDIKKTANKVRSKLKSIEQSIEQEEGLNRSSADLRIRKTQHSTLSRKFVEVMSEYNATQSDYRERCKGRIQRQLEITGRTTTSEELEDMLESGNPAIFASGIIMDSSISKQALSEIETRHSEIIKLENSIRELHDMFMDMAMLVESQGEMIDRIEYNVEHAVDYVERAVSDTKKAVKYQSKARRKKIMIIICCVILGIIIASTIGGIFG
T1 sequence (P60881 whole entry, chain 2 of 2): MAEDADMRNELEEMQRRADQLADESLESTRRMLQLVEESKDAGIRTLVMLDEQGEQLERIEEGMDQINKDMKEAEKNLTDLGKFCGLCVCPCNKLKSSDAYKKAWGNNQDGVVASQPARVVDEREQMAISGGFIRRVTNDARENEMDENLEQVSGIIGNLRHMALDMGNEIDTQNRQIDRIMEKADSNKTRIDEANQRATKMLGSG

B1: MBP-DAMH (MBP fusion protein of the CAPS DAMH domain) (domain or fragment, UniProt Q62717 859-1073, looked up)
chain: ENVGRLITPAKKLEDTIRLAELVIEVLQQNEEHHAEAFAWWSDLMVEHAETFLSLFAVDMDAALEVQPPDTWDSFPLFQLLNDFLRTDYNLCNGKFHKHLQDLFAPLVVRYVDLMESSIAQSIHRGFERESWEPVNNGSGTSEDLFWKLDALQTFIRDLHWPEEEFGKHLEQRLKLMASDMIESCVKRTRIAFEVKLQKTSRSTDFRVPQSICTM
As to B1, in assay [1], the affinity, expressed as Kd, was 177 nM.

B2: GST-DAMH (GST fusion protein of CAPS(859-1073), the DAMH domain) (domain or fragment, UniProt Q62717 859-1073, looked up)
chain: B1 chain
Consider B2, for which the “fold binding against syntaxin-1 or SNAP-25 alone” value in assay [2] was 2 fold.

For the origin of these results see article PMC3148490 (Cell metabolism, 2011).
